Measured values taken from publication PMC8956256 (Science Advances, 2022).

Biological target: the molecule itself
Test: cryo-EM structure

B1: Human TMEM175 (transmembrane protein 175) (natural protein)
chain: MSQPRTPEQALDTPGDCPPGRRDEDAGEGIQCSQRMLSFSDALLSIIATVMILPVTHTEISPEQQFDRSVQRLLATRIAVYLMTFLIVTVAWAAHTRLFQVVGKTDDTLALLNLACMMTITFLPYTFSLMVTFPDVPLGIFLFCVCVIAIGVVQALIVGYAFHFPHLLSPQIQRSAHRALYRRHVLGIVLQGPALCFAAAIFSLFFVPLSYLLMVTVILLPYVSKVTGWCRDRLLGHREPSAHPVEVFSFDLHEPLSKERVEAFSDGVYAIVATLLILDICEDNVPDPKDVKERFSGSLVAALSATGPRFLAYFGSFATVGLLWFAHHSLFLHVRKATRAMGLLNTLSLAFVGGLPLAYQQTSAFARQPRDELERVRVSCTIIFLASIFQLAMWTTALLHQAETLQPSVWFGGREHVLMFAKLALYPCASLLAFASTCLLSRFSVGIFHLMQIAVPCAFLLLRLLVGLALATLRVLRGLARPEHPPPAPTGQDDPQSQLLPAPC
With B1 as the protein, how does the “stoichiometry N” value read?
The value was 2.
